From the Human Domainome abundance scans (Beltran et al. 2025) come the findings set out here.

± gives the uncertainty stated by the source.

B1: Histone-lysine N-methyltransferase SETD2, residues 2382 to 2430; numbered along this chain, Q9BYW2 (parent)
chain: SPPKPKTIVLPPNWKTARDPEGKIYYYHVITRQTQWDPPTWESPGDDAS

In this data set the parent is B1. The data set is described as follows: abundance fitness (aPCA) (normalised: wild type 0, dead -1); higher = more abundant; growth selection in yeast, the domain comes from the species named. As to conditions: Homo sapiens.
For SPPKPKTIVLPPNWKTARDPEGKIYYFHVITRQTQWDPPTWESPGDDAS [Y27F], the abundance fitness is -0.487 ± 0.15. Regarding SPPKPKTIVLPPNWKTARDPEGKIYYMHVITRQTQWDPPTWESPGDDAS [Y27M], the abundance fitness was -0.339 ± 0.046.

Consider SPPKPKTIVLPPNWKTARDPEGKIYYRHVITRQTQWDPPTWESPGDDAS [Y27R], for which the abundance fitness was -0.265 ± 0.052. SPPKPKTIVLPPNWKTARDPEGKIYYEHVITRQTQWDPPTWESPGDDAS [Y27E]: the abundance fitness was -0.3 ± 0.038.

As for SPPKPKTIVLPPNWKTARDPEGKIYYHHVITRQTQWDPPTWESPGDDAS [Y27H], the abundance fitness is -0.293 ± 0.041. As to SPPKPKTIVLPPNWKTARDPEGKIYYDHVITRQTQWDPPTWESPGDDAS [Y27D], the abundance fitness is -0.446 ± 0.11. For the variant SPPKPKTIVLPPNWKTARDPEGKIYYGHVITRQTQWDPPTWESPGDDAS [Y27G], the abundance fitness was -0.747 ± 0.067. The same measure for SPPKPKTIVLPPNWKTARDPEGKIYYCHVITRQTQWDPPTWESPGDDAS [Y27C]: -0.543 ± 0.093; for SPPKPKTIVLPPNWKTARDPEGKIYYQHVITRQTQWDPPTWESPGDDAS [Y27Q]: -0.136 ± 0.081; for SPPKPKTIVLPPNWKTARDPEGKIYYKHVITRQTQWDPPTWESPGDDAS [Y27K]: -0.261 ± 0.082. The same measure for SPPKPKTIVLPPNWKTARDPEGKIYYPHVITRQTQWDPPTWESPGDDAS [Y27P]: -0.898 ± 0.089; for SPPKPKTIVLPPNWKTARDPEGKIYYLHVITRQTQWDPPTWESPGDDAS [Y27L]: -0.534 ± 0.054; for SPPKPKTIVLPPNWKTARDPEGKIYYSHVITRQTQWDPPTWESPGDDAS [Y27S]: -0.433 ± 0.052. The same measure for SPPKPKTIVLPPNWKTARDPEGKVYYYHVITRQTQWDPPTWESPGDDAS [I24V]: -0.406 ± 0.27; for SPPKPKTIVLPPNWKTARDPEGKYYYYHVITRQTQWDPPTWESPGDDAS [I24Y]: -0.336 ± 0.33; for SPPKPKTIVLPPNWKTARDPEGKTYYYHVITRQTQWDPPTWESPGDDAS [I24T]: -0.228 ± 0.41. On to SPPKPKTIVLPPNWKTARDPEGKWYYYHVITRQTQWDPPTWESPGDDAS [I24W], for which the abundance fitness was -0.123 ± 0.27. The same measure for SPPKPKTIVLPPNWKTARDPEGKINYYHVITRQTQWDPPTWESPGDDAS [Y25N]: -0.911 ± 0.17; for SPPKPKTIVLPPNWKTARDPEGKICYYHVITRQTQWDPPTWESPGDDAS [Y25C]: -0.538 ± 0.077. Then SPPKPKTIVLPPNWKTARDPEGKIAYYHVITRQTQWDPPTWESPGDDAS [Y25A], with -0.642 ± 0.072. The same measure for SPPKPKTIVLPPNWKTARDPEGKIWYYHVITRQTQWDPPTWESPGDDAS [Y25W]: -0.907 ± 0.13; for SPPKPKTIVLPPNWKTARDPEGKIMYYHVITRQTQWDPPTWESPGDDAS [Y25M]: -0.56 ± 0.047; for SPPKPKTIVLPPNWKTARDPEGKIRYYHVITRQTQWDPPTWESPGDDAS [Y25R]: -0.628 ± 0.049.

SPPKPKTIVLPPNWKTARDPEGKIVYYHVITRQTQWDPPTWESPGDDAS [Y25V]: the abundance fitness was -0.395 ± 0.039.

Take SPPKPKTIVLPPNWKTARDPEGKIHYYHVITRQTQWDPPTWESPGDDAS [Y25H]: the abundance fitness is -0.419 ± 0.12. The same measure for SPPKPKTIVLPPNWKTARDPEGKIGYYHVITRQTQWDPPTWESPGDDAS [Y25G]: -0.844 ± 0.051. Then SPPKPKTIVLPPNWKTARDPEGKISYYHVITRQTQWDPPTWESPGDDAS [Y25S], with -0.628 ± 0.066; and SPPKPKTIVLPPNWKTARDPEGKITYYHVITRQTQWDPPTWESPGDDAS [Y25T], with -0.73 ± 0.14.

Consider SPPKPKTIVLPPNWKTARDPEGKIPYYHVITRQTQWDPPTWESPGDDAS [Y25P], for which the abundance fitness is -0.784 ± 0.17. In the case of SPPKPKTIVLPPNWKTARDPEGKIIYYHVITRQTQWDPPTWESPGDDAS [Y25I], the abundance fitness is -0.38 ± 0.11. The same measure for SPPKPKTIVLPPNWKTARDPEGKILYYHVITRQTQWDPPTWESPGDDAS [Y25L]: -0.358 ± 0.047. On to SPPKPKTIVLPPNWKTARDPEGKIQYYHVITRQTQWDPPTWESPGDDAS [Y25Q], for which the abundance fitness was -0.454 ± 0.1. Consider SPPKPKTIVLPPNWKTARDPEGKIFYYHVITRQTQWDPPTWESPGDDAS [Y25F], for which the abundance fitness is -0.227 ± 0.12. Turning to SPPKPKTIVLPPNWKTARDPEGKIKYYHVITRQTQWDPPTWESPGDDAS [Y25K], the abundance fitness is -0.569 ± 0.089. The same measure for SPPKPKTIVLPPNWKTARDPEGKIDYYHVITRQTQWDPPTWESPGDDAS [Y25D]: -0.485 ± 0.11; for SPPKPKTIVLPPNWKTARDPEGKIYPYHVITRQTQWDPPTWESPGDDAS [Y26P]: -0.765 ± 0.057. Regarding SPPKPKTIVLPPNWKTARDPEGKIYWYHVITRQTQWDPPTWESPGDDAS [Y26W], the abundance fitness was -0.498 ± 0.091. The same measure for SPPKPKTIVLPPNWKTARDPEGKIYCYHVITRQTQWDPPTWESPGDDAS [Y26C]: -0.853 ± 0.3. On to SPPKPKTIVLPPNWKTARDPEGKIYFYHVITRQTQWDPPTWESPGDDAS [Y26F], for which the abundance fitness is -0.315 ± 0.12.

Turning to SPPKPKTIVLPPNWKTARDPEGKIYLYHVITRQTQWDPPTWESPGDDAS [Y26L], the abundance fitness is -0.878 ± 0.088. For the variant SPPKPKTIVLPPNWKTARDPEGKIYNYHVITRQTQWDPPTWESPGDDAS [Y26N], the abundance fitness was -0.517 ± 0.24. The same measure for SPPKPKTIVLPPNWKTARDPEGKIYIYHVITRQTQWDPPTWESPGDDAS [Y26I]: -0.782 ± 0.28; for SPPKPKTIVLPPNWKTARDPEGKIYTYHVITRQTQWDPPTWESPGDDAS [Y26T]: -0.637 ± 0.15. As for SPPKPKTIVLPPNWKTARDPEGKIYDYHVITRQTQWDPPTWESPGDDAS [Y26D], the abundance fitness was -0.553 ± 0.21.

Take SPPKPKTIVLPPNWKTARDPEGKIYVYHVITRQTQWDPPTWESPGDDAS [Y26V]: the abundance fitness is -0.585 ± 0.074. Regarding SPPKPKTIVLPPNWKTARDPEGKIYHYHVITRQTQWDPPTWESPGDDAS [Y26H], the abundance fitness is -0.618 ± 0.13. The same measure for SPPKPKTIVLPPNWKTARDPEGKIYQYHVITRQTQWDPPTWESPGDDAS [Y26Q]: -0.777 ± 0.12; for SPPKPKTIVLPPNWKTARDPEGKIYGYHVITRQTQWDPPTWESPGDDAS [Y26G]: -0.934 ± 0.1; for SPPKPKTIVLPPNWKTARDPEGKIYSYHVITRQTQWDPPTWESPGDDAS [Y26S]: -0.786 ± 0.13.

With SPPKPKTIVLPPNWKTARDPEGKIYMYHVITRQTQWDPPTWESPGDDAS [Y26M], the abundance fitness is -0.694 ± 0.12. Then SPPKPKTIVLPPNWKTARDPEGKIYKYHVITRQTQWDPPTWESPGDDAS [Y26K], with -0.655 ± 0.18; and SPPKPKTIVLPPNWKTARDPEGKIYEYHVITRQTQWDPPTWESPGDDAS [Y26E], with -0.981 ± 0.077. The same measure for SPPKPKTIVLPPNWKTARDPEGKIYAYHVITRQTQWDPPTWESPGDDAS [Y26A]: -0.865 ± 0.059.
